In patent US20140178935A1 (AVEO PHARMACEUTICALS, published 2014) one finds Kd, koff and kon data, which are given here for one molecule.

Assay [1] concerns the target T1, recombinant human HGF (R&D Systems, Catalog No. 294-HGN-025) (human, UniProt P14210 32-728).
T1 construct: Mature HGF is a disulfide-linked heterodimer of alpha and beta chain cut from one precursor; also called rhHGF (R&D Systems); rhHGF
Put plainly: SPR, captured antibody, HGF injected, 25 C. The method, then: Mouse anti-human immunoglobulins (Jackson Labs, Catalog No. 209-005) were immobilized on carboxymethylated dextran CM4 sensor chips (BIAcore, Catalog No. BR-1006-68) by amine coupling (BIAcore, Catalog No. BR-1000-50) using a standard coupling protocol according to manufacturer's instructions. The analyses were performed at 25° C. using PBS (GIBCO, Catalog No. 14040-133) containing 0.05% surfactant P20 (BIAcore, Catalog No. BR-1000-54), and 2 mg/mL BSA (EMD, Catalog No. 2930).
(§1) The antibodies were captured in an individual flow cell at a flow rate of 10 μL/min. Injection time was variable for each antibody to yield approximately 20 RU of antibody captured for each cycle. […] The dissociation phase was monitored for 15 or 90 minutes, depending on concentration. The surface then was regenerated with 10 mM Glycine-HCl, pH 2.2 (BIAcore, Catalog No. BR-1003-54) injected for 3 minutes at a flow rate of 60 μL/min before another cycle was initiated.
Kinetic parameters were determined using the kinetic function of the BIAevalutation™ software with reference subtraction.
For orientation: SPR reads the build-up and loss of mass on a sensor chip optically.

In assay [2] the target is T1, recombinant human HGF (R&D Systems, …). The assay is described as follows: SPR, captured antibody, HGF injected, 25 C. How it is done:
Mouse anti-human immunoglobulins (Jackson Labs, Catalog No. 209-005) or rabbit anti-mouse immunoglobulins (BIAcore, Catalog No. BR-1005-14) were immobilized on carboxymethylated dextran CM4 sensor chips (BIAcore, Catalog No. BR-1006-68) by amine coupling (BIAcore, Catalog No. BR-1000-50) using a standard coupling protocol according to manufacturer's instructions. […] The analyses were performed at 25° C. and 37° C. using PBS (GIBCO, Catalog No. 14040-133) containing 0.05% surfactant P20 (BIAcore, Catalog No. BR-1000-54), and 2 mg/mL BSA (EMD, Catalog No. 2930) as running buffer.
as §1, with “[…].” for “μL/min.”, “surface of mouse anti-human immunoglobulins sensor chips was” for “surface”, “then” for “then was”, “initiated. The surface of rabbit anti-mouse immunoglobulins sensor chips was regenerated with 10 mM Glycine-HCl, pH 1.7 (BIAcore, Catalog No. BR-1003-54) injected for 3 minutes at a flow rate of 60 μL/min before another cycle was initiated.” for “initiated.”
Kinetic parameters were determined using the kinetic function of the BIAevaluation software with reference subtraction.
This is another data set of the same source.

The target is the same in assay [3]. The assay is described as follows: SPR (BIAcore T100), antibody captured on mouse anti-human immunoglobulin CM4 chip, HGF 1.88, 3.75 and 7.5 nM injected, 25 C; three independent experiments. The method, then: Antigen-binding affinity and kinetics of interaction were assessed by surface plasmon resonance technology using a BIAcore T100 instrument. Mouse anti-human immunoglobulins (Jackson ImmunoResearch Labs, 209-005-098) were immobilized on carboxymethylated dextran CM4 sensor chips (BIAcore, Catalog No. BR-1005-34) by amine coupling (BIAcore, Catalog No. BR-1000-50) using a standard coupling protocol according to manufacturer's recommendations. The analyses were performed at 25° C. using PBS (GIBCO, Catalog No. 14040-133) containing 0.05% surfactant P20 (BIAcore, Catalog No. BR-1000-54), 2 mg/mL BSA (EMD, Catalog No. 2930) and 10 mg/mL CM-Dextran Sodium salt (Fluka, Catalog No. 86524) as running buffer.
as §1, with “on” for “in an”, “2.0” for “2.2”, “BR-1003-55)” for “BR-1003-54)”, “initiated. […] Determination of kinetic parameters was achieved using the kinetic function of the BIAevalutation software with reference subtraction.” for “initiated.”

T1 sequence (P14210 32-728 limits assumed): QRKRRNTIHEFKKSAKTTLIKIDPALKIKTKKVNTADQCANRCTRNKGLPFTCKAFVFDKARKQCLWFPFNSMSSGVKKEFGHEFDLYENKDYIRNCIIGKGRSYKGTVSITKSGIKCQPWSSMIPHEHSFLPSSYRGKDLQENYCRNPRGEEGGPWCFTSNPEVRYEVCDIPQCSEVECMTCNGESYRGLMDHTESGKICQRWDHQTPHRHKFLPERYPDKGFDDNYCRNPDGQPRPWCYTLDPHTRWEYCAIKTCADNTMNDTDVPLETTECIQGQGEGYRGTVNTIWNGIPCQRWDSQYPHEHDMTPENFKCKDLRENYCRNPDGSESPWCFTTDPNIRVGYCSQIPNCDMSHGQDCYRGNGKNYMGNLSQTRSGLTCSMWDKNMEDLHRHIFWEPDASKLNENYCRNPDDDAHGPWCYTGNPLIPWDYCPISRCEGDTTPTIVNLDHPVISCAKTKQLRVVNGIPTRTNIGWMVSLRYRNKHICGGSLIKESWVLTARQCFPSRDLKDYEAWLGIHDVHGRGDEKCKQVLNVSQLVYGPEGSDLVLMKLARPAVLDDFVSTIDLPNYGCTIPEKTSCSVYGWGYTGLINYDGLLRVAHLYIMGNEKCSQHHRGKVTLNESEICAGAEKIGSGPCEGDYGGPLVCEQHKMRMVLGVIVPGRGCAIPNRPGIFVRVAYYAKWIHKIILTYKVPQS

B1: sh2B8-9 (G1m(17,1)) = hu2B8 Hv5-51.1 + IgG1 constant region (G1m(17,1) allotype) plus hu2B8 Kv1-39.1 + Kappa constant region (Km(3) allotype, allele 2) (antibody)
heavy: not shown
light: DIQMTQSPSSLSASVGDRVTITCKASENVVSYVSWYQQKPGKAPKLLIYGASNRNTGVPSRFSGSGSGTDFTLTISSLQPEDFATYYCGQSYNYPYTFGQGTKLEIKRTVAAPSVFIFPPSDEQLKSGTASVVCLLNNFYPREAKVQWKVDNALQSGNSQESVTEQDSKDSTYSLSSTLTLSKADYEKHKVYACEVTHQGLSSPVTKSFNRGEC
As usually defined, the Kd is the equilibrium constant for the complex coming apart. Broadly, the koff is the rate constant with which the complex falls apart. As usually defined, the kon is a measure of how fast the partners come together. Turning to B1, the Kd in assay [1], in assay [2] and in assay [3] was 8.1 pM each time. In addition, the dissociation rate constant (koff) in assay [1], in assay [2] and in assay [3] was 1.7e-05 s⁻¹ throughout. Moreover, the kon in assay [1], in assay [2] and in assay [3] was 2e+06 M⁻¹ s⁻¹ each time.
